Substitutions are numbered along the chain they refer to.
B1: Erk2-binding clone group N (RNF8-FHA domain-modified protein) (designed binder)
chain: GEPGFFVTGDRAGGRSWCLRRVGMSAGWLLLEDGCEVTVGWGGGVTYQLVSKGYLWQRRTNHCVLKQNPEGQWTIMDNKVLGGVWLNRARLEPLRVYSIHQGDYIQLGLRSLLLENAEYEYEVTEEDWETIYPCLSPKNDQMIEKN
notes: Purified protein from E. coli; also called Erk2 clone N; clone N; not shown: N-terminal fusion partner from vector pET-MalStrep (MBP/Strep) and FLAG tag
B2: Erk2-binding clone group I (RNF8-FHA domain-modified protein) (designed binder)
chain: GEPGFFVTGDRAGGRSWCLRRVGMSAGWLLLEDGCEVTVGFGTGVTYQLVSKYLPSWFTYNHCVLKQNPEGQWTIMDNKSLTGVWLNRARLEPLRVYSIHQGDYIQLGSLAANLENAEYEYEVTEEDWETIYPCLSPKNDQMIEKN
notes: Only tested in the primary screening ELISA (E. coli extract); not shown: N-terminal fusion partner from vector pET-MalStrep (MBP/Strep) and FLAG tag
B3: Erk2-binding clone group G (RNF8-FHA domain-modified protein) (designed binder)
chain: B2 chain with A111P, A112G, N113L, L114A
notes: as for B2
B4: Erk2-binding clone group E (RNF8-FHA domain-modified protein) (designed binder)
chain: B2 chain with S109E, L110T, A111G, A112L, N113E, L114W
notes: as for B2
B5: Erk2-binding clone group M (RNF8-FHA domain-modified protein) (designed binder)
chain: B2 chain with S109A, A111R, A112C, N113R
notes: as for B2
B6: Erk2-binding clone group K (RNF8-FHA domain-modified protein) (designed binder)
chain: B2 chain with S109E, L110D, A111R, A112F, N113G
notes: as for B2
B7: Erk2-binding clone group L (RNF8-FHA domain-modified protein) (designed binder)
chain: B2 chain with S109A, L110M, A111F, A112S, N113D, L114V
notes: as for B2
B8: Erk2-binding clone group H (RNF8-FHA domain-modified protein) (designed binder)
chain: B2 chain with S109L, L110V, A112Y, N113G, L114A
notes: as for B2
B9: Erk2-binding clone group F (RNF8-FHA domain-modified protein) (designed binder)
chain: B2 chain with L110M, A111R, A112H, N113M
notes: as for B2
B10: Erk2-binding clone group B (RNF8-FHA domain-modified protein) (designed binder)
chain: B2 chain with S109A, A111K, A112Q, N113S
notes: Loop 4 ALKQSL; loops 1-3 as group A; also called Erk2 clone B; not shown: N-terminal fusion partner from vector pET-MalStrep (MBP/Strep) and FLAG tag
B11: Erk2-binding clone group C (RNF8-FHA domain-modified protein) (designed binder)
chain: B2 chain with S109A, L110M, A111T, A112T, N113S, L114Y
notes: Loop 4 AMTTSY; loops 1-3 as group A; also called Erk2 clone C; not shown: N-terminal fusion partner from vector pET-MalStrep (MBP/Strep) and FLAG tag
B12: Erk2-binding clone group D (RNF8-FHA domain-modified protein) (designed binder)
chain: B2 chain with L110H, A111K, A112W, N113W, L114V
notes: Loop 4 SHKWWV; loops 1-3 as group A; also called Erk2 clone D; not shown: N-terminal fusion partner from vector pET-MalStrep (MBP/Strep) and FLAG tag
B13: Erk2-binding clone group A (RNF8-FHA domain-modified protein) (designed binder)
chain: B2 chain with S109G, L110I, A111W, A112S, N113D
notes: Expressed from pET-MalStrep in E. coli; also called Erk2 clone A; not shown: N-terminal fusion partner from E. coli vector pET-MalStrep (MBP, purified on MBPTrap)
B14: Trx-binding clone group H (RNF8-FHA domain-modified protein) (designed binder)
chain: GEPGFFVTGDRAGGRSWCLRRVGMSAGWLLLEDGCEVTVGSDWGVTYQLVSKRWLGNVVFNHCVLKQNPEGQWTIMDNKAGHGVWLNRARLEPLRVYSIHQGDYIQLGEPSSLHENAEYEYEVTEEDWETIYPCLSPKNDQMIEKN
notes: not shown: N-terminal fusion partner from vector pET-MalStrep (MBP/Strep) and FLAG tag
B15: Trx-binding clone group A (RNF8-FHA domain-modified protein) (designed binder)
chain: GEPGFFVTGDRAGGRSWCLRRVGMSAGWLLLEDGCEVTVGFVPGVTYQLVSKVLFAEKNANHCVLKQNPEGQWTIMDNKVWNGVWLNRARLEPLRVYSIHQGDYIQLGQVSPLGENAEYEYEVTEEDWETIYPCLSPKNDQMIEKN
notes: also called Trx clone A; not shown: N-terminal fusion partner from vector pET-MalStrep (MBP/Strep) and FLAG tag
B16: Trx-binding clone group G (RNF8-FHA domain-modified protein) (designed binder)
chain: B15 chain with V42L, V53P, L54M, F55R, A56R, A60M, W81R, N82I
notes: as for B14
B17: Trx-binding clone group C (RNF8-FHA domain-modified protein) (designed binder)
chain: B15 chain with Q109G, S111F, P112R, L113K
notes: Loop 4 GVFRKG; loops 1-3 as Trx group A; not shown: N-terminal fusion partner from vector pET-MalStrep (MBP/Strep) and FLAG tag
B18: Trx-binding clone group D (RNF8-FHA domain-modified protein) (designed binder)
chain: B15 chain with Q109R, V110G, S111C, P112L, L113G, G114L
notes: Loop 4 RGCLGL; loops 1-3 as Trx group A; not shown: N-terminal fusion partner from vector pET-MalStrep (MBP/Strep) and FLAG tag
B19: Trx clone A expressed from pcDNA3.1-RNF8-V5/His in HEK293T cells (designed binder)
chain: B15 chain
notes: Control clone in the pull-down of endogenous Erk1/2; not shown: C-terminal V5 and His tags of vector pcDNA3.1-V5/His

These binders were tested against T1, human Erk2 (extracellular signal-regulated kinase 2), purchased from Sigma (human, UniProt P28482 1-360, limits assumed) (assay: SPR (BIACORE 3000), biotinylated Erk2 on SA sensor chip).
T1 construct: Biotinylated with EZ-Link NHS-PEO4-Biotin for selection and for SPR (SA sensor chip); immobilised directly on the plate for ELISA; also called recombinant Erk2 protein; Erk2 protein
T1 sequence (P28482 whole entry): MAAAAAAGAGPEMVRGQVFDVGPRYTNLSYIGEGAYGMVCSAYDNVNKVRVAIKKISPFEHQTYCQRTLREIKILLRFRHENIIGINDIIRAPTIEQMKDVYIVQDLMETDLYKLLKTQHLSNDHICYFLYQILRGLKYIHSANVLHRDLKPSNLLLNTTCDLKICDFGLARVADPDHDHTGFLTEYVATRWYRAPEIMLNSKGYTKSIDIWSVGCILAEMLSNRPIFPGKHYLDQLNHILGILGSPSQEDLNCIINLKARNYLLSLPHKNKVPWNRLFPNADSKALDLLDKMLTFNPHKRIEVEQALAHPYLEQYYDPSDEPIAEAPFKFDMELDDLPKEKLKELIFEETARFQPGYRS

Binder | Kd
B1 | 30 nM

Each binder was assayed against T1, human Erk2 (extracellular …) (assay: primary screening ELISA, E. coli extract on immobilised antigen, anti-FLAG-HRP).

Binder | binding result
B2 | binds
B3 | binds
B4 | binds
B5 | binds
B6 | binds
B7 | binds
B8 | binds
B9 | binds

What follows are binders tested against T1, human Erk2 (extracellular …) (assay: ELISA, purified clone 500 ng/well on immobilised antigen, anti-FLAG-HRP detection).

Binder | ELISA (S/N)
B1 | 12.6 S/N
B10 | 30 S/N
B11 | 12 S/N
B12 | 13.6 S/N
B13 | 30 S/N

What follows are binders tested against T2, Escherichia coli thioredoxin, purchased from Sigma (Escherichia coli, UniProt P0AA25 2-109 = thioredoxin) in the same assay as above.
T2 construct: Immobilised on the plate for ELISA; also called Trx
T2 sequence (P0AA25 2-109 limits assumed): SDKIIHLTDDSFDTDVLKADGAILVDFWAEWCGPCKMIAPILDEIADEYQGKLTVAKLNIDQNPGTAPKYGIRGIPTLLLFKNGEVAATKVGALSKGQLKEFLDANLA

Binder | ELISA (S/N)
B14 | 5.7 S/N
B15 | 30.5 S/N
B16 | 22.2 S/N
B17 | 4.4 S/N
B18 | 4.7 S/N

What follows are binders tested against T3, endogenous Erk1 of HEK293T cells (UniProt P27361 2-379) (assay: His-tag (TALON resin) pull-down from transfected HEK293T cells, Western blot with anti-ERK antibody).
T3 construct: Endogenous intracellular protein, not a recombinant construct; also called Erk1/2
T3 sequence (P27361 2-379 limits assumed): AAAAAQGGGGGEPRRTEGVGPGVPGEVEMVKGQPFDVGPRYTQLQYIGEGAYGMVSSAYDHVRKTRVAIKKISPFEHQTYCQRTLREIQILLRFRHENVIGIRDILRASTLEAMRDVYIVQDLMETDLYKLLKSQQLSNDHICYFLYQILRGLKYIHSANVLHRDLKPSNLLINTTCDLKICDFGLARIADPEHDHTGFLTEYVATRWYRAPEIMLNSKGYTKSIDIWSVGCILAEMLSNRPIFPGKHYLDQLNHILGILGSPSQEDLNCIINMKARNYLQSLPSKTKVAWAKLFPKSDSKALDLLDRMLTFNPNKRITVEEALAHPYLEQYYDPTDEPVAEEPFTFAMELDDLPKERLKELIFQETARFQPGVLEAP

Binder | binding result
B19 | no binding

The binders below were run against T4, endogenous Erk2 of HEK293T cells (UniProt P28482 2-360) in the same assay as above.
T4 construct: Endogenous intracellular protein, not a recombinant construct; also called Erk1/2
T4 sequence (P28482 2-360 limits assumed): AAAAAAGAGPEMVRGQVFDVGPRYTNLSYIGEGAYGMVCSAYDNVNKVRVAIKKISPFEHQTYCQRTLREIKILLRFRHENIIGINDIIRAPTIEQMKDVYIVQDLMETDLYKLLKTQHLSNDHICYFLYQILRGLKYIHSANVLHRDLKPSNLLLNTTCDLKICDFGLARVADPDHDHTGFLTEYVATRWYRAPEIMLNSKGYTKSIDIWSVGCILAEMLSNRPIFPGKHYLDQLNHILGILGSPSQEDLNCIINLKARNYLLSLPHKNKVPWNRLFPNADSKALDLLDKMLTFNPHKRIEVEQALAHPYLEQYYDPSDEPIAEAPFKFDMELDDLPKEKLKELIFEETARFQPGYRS

Binder | binding result
B19 | no binding

The binders below were run against T1, human Erk2 (extracellular …) (assay: Immunoprecipitation on anti-FLAG M2 agarose of recombinant Erk2 added to HEK293T cell lysate; SDS-PAGE (CBB staining) and Western blot with anti-ERK antibody).

Binder | binding result
B15 | no binding

From patent publication US20130143299A1 (GENEFRONTIER, published 2013)
